First the molecules themselves.
B1: MLK-3 (enzyme, UniProt Q80XI6 1-850, looked up)
chain: MEPLKNLFLKSPLGSWNGSGSGGGGGTGGVRPEGSPKATAAYANPVWTALFDYEPNGQDELALRKGDRVEVLSRDAAISGDEGWWAGQVGGQVGIFPSNYVSRGGGPPPCEVASFQELRLEEVIGIGGFGKVYRGSWRGELVAVKAARQDPDEDISVTAESVRQEARLFAMLAHPNIIALKAVCLEEPNLCLVMEYAAGGPLSRALAGRRVPPHVLVNWAVQIARGMHYLHCEALVPVIHRDLKSNNILLLQPIEGDDMEHKTLKITDFGLAREWHKTTQMSAAGTYAWMAPEVIKASTFSKGSDVWSFGVLLWELLTGEVPYRGIDCLAVAYGVAVNKLTLPIPSTCPEPFAQLMADCWAQDPHRRPDFASILQQLEALEAQVLREMPRDSFHSMQEGWKREIQGLFDELRAKEKELLSREEELTRAAREQRSQAEQLRRREHLLAQWELEVFERELTLLLQQVDRERPHVRRRRGTFKRSKLRARDGGERISMPLDFKHRITVQASPGLDRRRNVFEVGAGDSPTFPRFRAIQLEPTESGQTWGRQSPRRLEDSSNGERRACWAWGPSSPKPGEAQNGRRRSRMDEATWYLDSDDSSPLGSPSTPPALNGNPPRPSPEPEEPRRAGPTERGNSSGTPKLIQRALLRGTALLASLGLGRDLQPPGGLSRERGESPTAPPPAQMPSPCPPELPSTPLIRLSQTTPDAHSSPTPGPLLLDLGVPSGQPSAKSPRREETRGRTVSPPPGISRSAPGTPGTPRSPPLGLISRPRPSPLRSRIDPWSFVSAGPRPSPLPSPQPAPRRAPWTLFPDSDPFWDSPPANPFRGGSQDCRTQTKDMGAQAPWAPEAGP
notes: Endogenous protein in T-cell lysates; also called MAP3K protein MLK-3
B2: JNK1 (enzyme, UniProt Q91Y86 1-384, looked up)
chain: MSRSKRDNNFYSVEIGDSTFTVLKRYQNLKPIGSGAQGIVCAAYDAILERNVAIKKLSRPFQNQTHAKRAYRELVLMKCVNHKNIIGLLNVFTPQKSLEEFQDVYIVMELMDANLCQVIQMELDHERMSYLLYQMLCGIKHLHSAGIIHRDLKPSNIVVKSDCTLKILDFGLARTAGTSFMMTPYVVTRYYRAPEVILGMGYKENVDLWSVGCIMGEMVCHKILFPGRDYIDQWNKVIEQLGTPCPEFMKKLQPTVRTYVENRPKYAGYSFEKLFPDVLFPADSEHNKLKASQARDLLSKMLVIDASKRISVDEALQHPYINVWYDPSEAEAPPPKIPDKQLDEREHTIEEWKELIYKEVMDLEERTKNGVIRGQPSPLAQVQQ
notes: Endogenous protein in T-cell lysates; also called 46KD JNK1
B3: JNK-interacting protein 1 (JIP-1) (other, UniProt Q9WVI9 1-707, looked up)
chain: MAERESGLGGGAASPPAASPFLGLHIASPPNFRLTHDISLEEFEDEDLSEITDECGISLQCKDTLSLRPPRAGLLSAGSSGSAGSRLQAEMLQMDLIDAAGDTPGAEDDEEEEDDELAAQRPGVGPPKAESNQDPAPRSQGQGPGTGSGDTYRPKRPTTLNLFPQVPRSQDTLNNNSLGKKHSWQDRVSRSSSPLKTGEQTPPHEHICLSDELPPQGSPVPTQDRGTSTDSPCRRSAATQMAPPSGPPATAPGGRGHSHRDRIHYQADVRLEATEEIYLTPVQRPPDPAEPTSTFMPPTESRMSVSSDPDPAAYSVTAGRPHPSISEEDEGFDCLSSPERAEPPGGGWRGSLGEPPPPPRASLSSDTSALSYDSVKYTLVVDEHAQLELVSLRPCFGDYSDESDSATVYDNCASASSPYESAIGEEYEEAPQPRPPTCLSEDSTPDEPDVHFSKKFLNVFMSGRSRSSSAESFGLFSCVINGEEHEQTHRAIFRFVPRHEDELELEVDDPLLVELQAEDYWYEAYNMRTGARGVFPAYYAIEVTKEPEHMAALAKNSDWIDQFRVKFLGSVQVPYHKGNDVLCAAMQKIATTRRLTVHFNPPSSCVLEISVRGVKIGVKADDALEAKGNKCSHFFQLKNISFCGYHPKNNKYFGFITKHPADHRFACHVFVSEDSTKALAESVGRAFQQFYKQFVEYTCPTEDIYLE
notes: Endogenous protein in T-cell lysates
B4: Plenty of SH3 domains (POSH) (other)
chain: MDESALLDLLECPVCLERLDASAKVLPCQHTFCKRCLLGIVGSRNELRCPECRTLVGSGVDELPSNILLVRLLDGIKQRPWKPGPGGGGGTTCTNTLRAQGSTVVNCGSKDLQSSQCGQQPRVQAWSPPVRGIPQLPCAKALYNYEGKEPGDLKFSKGDIIILRRQVDENWYHGEVSGVHGFFPTNFVQIIKPLPQPPPQCKALYDFEVKDKEADKDCLPFAKDDVLTVIRRVDENWAEGMLADKIGIFPISYVEFNSAAKQLIEWDKPPVPGVDTAECPSATAQSTSASKHPDTKKNTRKRHSFTSLTMANKSSQGSQNRHSMEISPPVLISSSNPTAAARISELSGLSCSAPSQVHISTTGLIVTPPPSSPVTTGPAFTFPSDVPYQAALGSMNPPLPPPPLLAATVLASTPSGATAAVAAAAAAAAAAGMGPRPVMGSSEQIAHLRPQTRPSVYVAIYPYTPRKEDELELRKGEMFLVFERCQDGWYKGTSMHTSKIGVFPGNYVAPVTRAVTNASQAKVSMSTAGQASRGVTMVSPSTAGGPTQKPQGNGVAGNPSVVPTAVVSAAHIQTSPQAKVLLHMSGQMTVNQARNAVRTVAAHSQERPTAAVTPIQVQNAACLGPASVGLPHHSLASQPLPPMAGPAAHGAAVSISRTNAPMACAAGASLASPNMTSAMLETEPSGRTVTILPGLPTSPESAASACGNSSAGKPDKDSKKEKKGLLKLLSGASTKRKPRVSPPASPTLDVELGAGEAPLQGAVGPELPLGGSHGRVGSCPTDGDGPVAAGTAALAQDAFHRKTSSLDSAVPIAPPPRQACSSLGPVMNEARPVVCERHRVVVSYPPQSEAELELKEGDIVFVHKKREDGWFKGTLQRNGKTGLFPGSFVENI
notes: Endogenous scaffold protein precipitated or detected in T-cell lysates (Co-IP, IP-FCM); also called Sh3Rf1

In test [1] the target is B4. The test is described as follows: IP-FCM with α-POSH beads in the presence of Tat-POSH.
Test [2] deals with B3. The test is described as follows: IP-FCM with α-JIP-1 beads in the presence of Tat-POSH.
The target of test [3] is B4. The test is described as follows: IP-FCM with α-POSH beads, lysates of stimulated OT-I T cells.
Protocol: Associated proteins were assessed by immunoblot. […] Data shown are representative of 6 independent experiments. […] Red histogram represents primary analyte and is shown to serve as a bead loading control.
For the next test, the target named is Rac1 (UniProt P63001 1-189). The test is described as follows: Co-IP with antibodies against Rac1 and immunoblot, OT-I blasts re-stimulated with OVA-Tet/α-CD28.

Protocol for Rac1: The beads were incubated with the lysates washed and probed with antibodies against the Co-IP target. The levels of associated molecules (secondary analyte/Co-IP target) were quantified relative to IP target (primary analyte/loading control). Specificity was determined by comparison to both isotype and negative control antibodies (FIG. 5 and FIG. 6). […] Shaded histogram represents the staining of an isotype control. […] These two negative controls were used to establish significance of shift above background.
Associated proteins were assessed by immunoblot.

Turning to B1, the binding result in test [1] is given as “binds”.
Take B2: the binding result in test [2] and in test [3] was “binds” each time.
For the molecule B3, the binding result in test [3] is reported as “binds”.
In the case of B4, the binding result with Rac1 was “binds”.

The values are drawn from patent US20160193292A1 (CURATORS OF THE UNIVERSITY OF MISSOURI, published 2016).
